The source of these data is patent US20110293610A1 (published 2011).

In test [1] the target is T1, biotinylated B Lymphocyte Stimulator, soluble form (human, UniProt Q9Y275 134-285, biotinylated with NHS-biotin, molar ratio 20:1 biotin:protein).
T1 construct: also called bio-B Lymphocyte Stimulator; free B Lymphocyte Stimulator
Briefly: phage scFv, receptor binding inhibition on IM9 cells. Here is the method: Fifty-five μl of each appropriate phage supernatant was added to each well and the final volume in each well was 65 μl. Plates were then incubated at room temperature for 30 minutes.
Plates were washed three times in PBST and three times in PBS, tapped dry and 50 μl of streptavidin-Delfia (Wallac) was added to each well at 1:1000 dilution in the Manufacturer's assay buffer. The plates were then incubated at room temperature for 1 hour and washed six times in Delfia wash solution (Wallac). After tapping the plates dry, 100 μl per well of Delfia enhancement solution (Wallac) was added. The plates were gently tapped to encourage micelle formation, incubated at room temperature for 10 minutes, and fluorescence read on a Wallac 1420 workstation at […].

In a further test the target is LIGHT (human, UniProt O43557 74-240, limits assumed). Briefly: phage ELISA.
Another test has as its target T2, TNF-alpha (human, UniProt P01375 77-233).
T2 construct: also called TNFα; TNF-α
The test is described as follows: phage ELISA.

Another test addresses T3, TNF-beta (human, UniProt P01374 35-205).
T3 construct: also called TNFβ; Tumour Necrosis Factor-beta
T3 sequence (looked up): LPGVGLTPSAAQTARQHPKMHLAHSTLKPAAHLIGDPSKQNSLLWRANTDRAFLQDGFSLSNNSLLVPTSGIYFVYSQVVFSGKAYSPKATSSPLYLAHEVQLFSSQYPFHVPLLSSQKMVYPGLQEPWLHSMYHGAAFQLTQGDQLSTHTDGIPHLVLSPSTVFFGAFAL
Briefly: phage ELISA.

Another test addresses T4, TRAIL (human, UniProt P50591 114-281).
T4 construct: also called TNF-related apoptosis inducing ligand
Briefly: phage ELISA. (In general: In an ELISA, binding on a coated surface is turned into a signal by an enzyme label.)

LIGHT, sequence (O43557 74-240 limits assumed): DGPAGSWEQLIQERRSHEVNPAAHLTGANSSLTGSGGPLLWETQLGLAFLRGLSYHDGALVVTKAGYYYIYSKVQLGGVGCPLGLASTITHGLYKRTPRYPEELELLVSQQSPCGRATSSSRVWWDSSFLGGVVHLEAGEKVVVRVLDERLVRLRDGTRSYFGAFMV
T4 sequence (P50591 114-281 limits assumed): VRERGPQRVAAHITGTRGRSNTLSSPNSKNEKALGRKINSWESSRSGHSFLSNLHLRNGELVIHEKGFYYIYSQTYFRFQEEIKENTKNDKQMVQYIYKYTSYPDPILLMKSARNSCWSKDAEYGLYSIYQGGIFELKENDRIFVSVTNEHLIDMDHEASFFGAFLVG
T2 sequence (P01375 77-233 limits assumed): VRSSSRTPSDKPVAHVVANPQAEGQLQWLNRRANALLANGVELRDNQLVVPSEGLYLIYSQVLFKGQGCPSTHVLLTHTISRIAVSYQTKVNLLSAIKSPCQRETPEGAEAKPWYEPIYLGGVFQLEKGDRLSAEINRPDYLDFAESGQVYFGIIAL

B1: I050A12 (scFv)
scFv: EVQLVQSGAEVKKPGSSVKVSCKASGDTFSHYAINWVRQAPGQGLEWMGGIIPTFNAVKYAQKFQGRATITADGSTSTAYMELNSLRSEDTAVYYCATAPYDLLTHYFHYFDYWGQGTMVTVSSGGGGSGGGGSGGGGSALSSELTQDPAVSVTLGQTVRITCQGDSLRSYYPSWYQQKPGQAPVLVIYPKNIRPSGIPDRFSGSSSGNTASLTITGAQAEDEADYYCNSRASSGNHYVFATGTKLTVLG
On to B1, for which, in test [1], the binding result was “binds”.

B2: I021B05 (scFv)
scFv: QVQQSGADVKKPGGSLRLSCAASGFTFSSYSMNWVRQAPGKGLEWVSSISSSSSYIYYADSVKGRFTISRDNAKNSLYLQMNSLRAEDTAVYYCAREGGNYDILTGYYIGNGAFDIWGRGTMVTVSSGGGGSGGGGSGGGGSQSVLTQPASVSGSPGQSITISCTGTSSDVGGYNYVSWYQQHPGKAPKLMIYEGSKRPSGVSNRFSGSKSGNTASLTISGLQAEDEADYYCSSYTTRSTRVFGGGTKLTVLG
On to B2, for which the binding result in test [1] was “binds”.

B3: I031C07 (scFv)
scFv: EVQLVQSGAEVKKPGSSVKVSCRASGGSFIDGSINWLRQAPGQGLEWVGGTIPLANRANYAQKFRDRVTITADELTAIVFLELTSLRSDDTALYYCARSSPPRWYDALTGDSSYHSAMDVWGQGTMVTVSSGGGGSGGGGSGGGGSAQSALTQPPSASGSPGQSVTISCSGTSSDIGDSNSVSWYQQHPGKAPKLLIYEVTKRPSGVPDRFAGSRSDNTASLTVSGLQTEDEADYYCSSSAARNHLVFGGGTKVTVLG
As for B3, the binding result in test [1] was “binds”.

B4: I016F02 (scFv)
scFv: GVQLVESGAEVKKPGASVKVSCRTSGYTFTSNSFSWVRQAPGQGLEWMGGIIPIFGTANYAQKLQGRVTITADELTRTVYMDLSSLRSEDTAVYYCATGMGDHYGMDVWGRGTLVTVSSGGGGSGGGGSGGGGSQSVLTQPASVSGSPGQSITISCTGTSSDVGGYNYVSWYQQHPGKAPKLMIYEGSKRPSGVSNRFSGSKSGNTASLTISGLQAEDEADYYCSSYTTRSTRVFGGGTKLTVLG
As for B4, the binding result in test [1] is recorded as “binds”.

B5: I051C04 (scFv)
scFv: QVQLQQSGAEVKKPGSSVKVSCRTSGGTFSNYGLSWVRQAPGQGLEWMGGVIPISSTIKYGQKFQDRLTIAADDLTNTTFMELSSLRPEDTAVYYCARAATTSQKHNKYAYYFYGMDVWGQGTMVTVSSGGGGSGGGGSGGGGSAQSALTQPASVSGSPGQSITISCTGTSSDVGGYNYVSWYQQHPGKAPKLMIYEVSNRPSGVSNRFSGSKSGNTASLTISGLQAEDEADYYCSSYTSSSTLVFGGGTKVTVLG
notes: also called 1051C04
As for B5, the binding result in test [1] is recorded as “binds”.

B6: I026C04-K (scFv)
scFv: QVQLVQSGAEVKKPGSSVKVSCRASGGSFNKHAISWVRQAPGRGLEWMGGILPMYGTANYAQKFQGRVTITADKLTNTVYMDLSRLRYEDTAVYYCARELGLSIVGATTGALDMWGKGTLVTVSSGGGGSGGGGSGGGGSAQSVLTQPPSVSAAPGQKVTISCSGSSSNIGNNYVSWYQQIPGTAPKLLIYENNKRPSGIPDRFSGSKSGASATLDITGLQTGDEADYYCGTWHSSQVVFGGGTKLTVLG
B6: the binding result with LIGHT, in the test with TNF-alpha, in the test with TNF-beta and with TRAIL was “no binding” each time.

B7: I012A06 (scFv)
scFv: QVQLQESGPGVVKPSQTLSLTCTVSGVSISSDSYYWSWIRQPAGKGPEWIGRIYPTGSTNYNPSLKSRVTISVDTSKNQFSLQLTSVTAADTAVYYCARGRWDYDLLTGEHLGYYFDYWGRGTLVTVSSGGGGSGGGGSGGGGSALSSELTQDPAVSVALGQTVRITCQGDTLRNYYASWYQQKPGQAPVLVIHSRNNRPSGIPDRFSGSSSGTTASLTITGSQAEDEADYYCNSRDSSGNVIFGGGTKLTVLG
As for B7, the binding result in test [1] is “binds”.

B8: I068C06 (scFv)
scFv: EVQLVQSGAEVKKPGSSVKVSCKASGGTVSSRTISWVRQAPGQGLEWMGGSLPPSGAPIYAQKFQGRVAITADALTNTAFMELRSLKSDDTAVYYCARDQGRYLDLWGKGTLVTVSSGGGGSGGGGSGGGGSAQAVLTQPSSVSGAPGQRVTISCTGSRSNIGAGYDVHWYQQLPGTAPKLLIYGNSNRPSGVPDRFSGSKSGTSASLAITGLQADDEADYYCQSYDTSLRGLFGTGTKVTVLG
notes: also called I0068C06; I0068CO6
With B8, the binding result in the test with LIGHT, with TNF-alpha, with TNF-beta and with TRAIL was “no binding” in each case.

B9: I022D01 (scFv)
scFv: EVNLRESGGGVDQPGRSLRLSCAASGFTFSSYGMHWVRQAPGKGLEWVAVISYDGSNKYYADSVKGRFTISRDNSKNTLYLQMNSLRAEDTAVYYCAKDGYYDILTGYSYYGMDVWGQGPMVAVSSGGGGSGGGGSGGGGSSELTQDPAVSVALGQTVRITCQGDSLRSYYTNWFQQKPGQAPLLVVYAKNKRPSGIPDRFSGSSSGNTASLTITGAQAEDEADYYCNSRDSSGNHVVFGGGTKLTVLG
Consider B9, for which the binding result in test [1] is reported as “binds”.

B10: I050B11 (scFv)
scFv: QVQLVQSGVEVKKPGASVKVSCKASGYTFSNHGISWVRQAPGQGLEWVGWISGHDDSTKYAQKFQGRVTMTADTSTSTAYIELRSLKSDDTAVYYCARPFYDTLTSYVFQYFDHWGQGTMVTVSSGGGGSGGGGSGGGGSALETTLTQSPDTLSLSPGERATLSCRASQSVTRGWVAWYQQKPGQAPRLLMYGTSRRATGVPDRFSGSESGTDFTLTISRLEPEDFAVYYCQQYATSPRTFGQGTRLEIKR
On to B10, for which, in test [1], the binding result is “binds”.

B11: I031G08 (scFv)
scFv: QVQLVQSGAEVKKPGSSVKVSCRASGGSFIDDSINWLRQAPGQGLEWVGGTIPLANRANYAQKFRDRATITADELTATVFLELTSLRSDDTALYYCARSSPPKWYDALTGHSSYHSAMDVWGRGTLVTVSSGGGGSGGGGSGGGGSAQSVLTQPPSASGTPGQRVTISCSGTNSNIGGNTVNWYQQLPGTAPRLLIYSNNQRPSGVPDRFSGSKSGTSASLAISGLQSEDEADYYCAARDDRLNAHVVFGGGTKVTVLG
With B11, the binding result in test [1] is on record as “binds”.

B12: I031G10 (scFv)
scFv: QVQLVQSGAEVKKPGSSVKVSCRVSGGSFTDDSINWLRQAPGQGLEWVGGTIPLANRANYAQKFRDRVTITADELTATVFLELTSLRSDDTALYYCARSSPPKWYDALTGDSSYHSAMDVWGRGTLVTVSSGGGGSGGGGSGGGGSAQSVVTQPPSVSAAPGQKVTISCSGSTSNIGRNYVSWYQQLPGTATKLLIYDNNKRPSGIPDRFSGSKSGTSATLGITGLQTGDEADYYCGTWDSSLRIYVFGTGTKVTVLG
Turning to B12, in test [1], the binding result is given as “binds”.

B13: I029F11 (scFv)
scFv: QVQLVQSRAEVKRPGASVKVSCKASGYRFGSYGITWVRQAPGQGLEWMGWISTRYGDTKSAQKVEGRVTLTTDTSTSTAYMELRSLRSDDTAVYYCARDGSYDILTGYYIDNYMDVWGRGTLVTVSSGGGGSGGGGSGGGGSQSVLTQPPSASGTPGQRVTISCSGSSSNIGSNTVNWYQRLPGAAPQLLIYNNDQRPSGIPDRFSGSKSGTSGSLVISGLQSEDEADYYCASWDDSLNGRVFGGGTKLTVLG
With B13, in test [1], the binding result is recorded as “binds”.
